Tests used:
Assay in all cases: ELISA, antigen immobilised at 5 ug/ml, HRP-labelled secondary antibody
[1] = target: T1, Recombinant Human Mer Fc Chimera Protein (R&D systems) (human, UniProt Q12866 26-499, limits assumed)
T1 construct: Bought reagent; also called human MerTK antigen; human Fc fusion protein of human MerTK; not shown: human Fc
T1 sequence (looked up): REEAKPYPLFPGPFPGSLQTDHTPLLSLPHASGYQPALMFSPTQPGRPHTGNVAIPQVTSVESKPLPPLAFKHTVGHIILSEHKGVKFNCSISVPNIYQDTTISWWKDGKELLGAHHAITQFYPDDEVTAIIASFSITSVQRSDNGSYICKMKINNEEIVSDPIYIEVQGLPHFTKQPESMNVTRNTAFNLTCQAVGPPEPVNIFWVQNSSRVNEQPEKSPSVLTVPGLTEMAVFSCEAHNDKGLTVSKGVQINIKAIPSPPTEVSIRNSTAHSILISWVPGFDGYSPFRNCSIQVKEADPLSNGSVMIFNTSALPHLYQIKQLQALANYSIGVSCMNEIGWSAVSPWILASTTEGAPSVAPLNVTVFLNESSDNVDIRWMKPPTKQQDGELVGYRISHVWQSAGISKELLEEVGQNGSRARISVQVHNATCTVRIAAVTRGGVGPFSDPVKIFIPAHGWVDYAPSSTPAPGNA
Procedure: (§1) The ELISA was performed according to the procedures indicated below. First, the respective antigens were added to an ELISA plate (Nunc) at a concentration of 5 μg/ml and immobilized overnight at room temperature. After removing the immobilization solution, 1% BSA/PBS was added for blocking reaction and left to stand at room temperature for 1 hour. After the blocking, the plate was washed with 0.05% Tween 20/PBS and an antibody solution was added for primary reaction at room temperature for 1 hour. After washing, an HRP-labelled antibody (GE Healthcare) was added for secondary reaction for 1 hour. After washing, a chromogenic substrate solution of TMB (Dako) was added for chromogenic reaction for 10 minutes, 1 N sulfuric acid was added to terminate the reaction and the absorbance was measured at 450 nm.

[2] = target: T2, Recombinant Mouse Mer Fc Chimera Protein (R&D systems) (mouse, UniProt Q60805 23-496, limits assumed)
T2 construct: Bought reagent; also called mouse MerTK antigen; human Fc fusion protein of mouse MerTK; not shown: human Fc
T2 sequence (looked up): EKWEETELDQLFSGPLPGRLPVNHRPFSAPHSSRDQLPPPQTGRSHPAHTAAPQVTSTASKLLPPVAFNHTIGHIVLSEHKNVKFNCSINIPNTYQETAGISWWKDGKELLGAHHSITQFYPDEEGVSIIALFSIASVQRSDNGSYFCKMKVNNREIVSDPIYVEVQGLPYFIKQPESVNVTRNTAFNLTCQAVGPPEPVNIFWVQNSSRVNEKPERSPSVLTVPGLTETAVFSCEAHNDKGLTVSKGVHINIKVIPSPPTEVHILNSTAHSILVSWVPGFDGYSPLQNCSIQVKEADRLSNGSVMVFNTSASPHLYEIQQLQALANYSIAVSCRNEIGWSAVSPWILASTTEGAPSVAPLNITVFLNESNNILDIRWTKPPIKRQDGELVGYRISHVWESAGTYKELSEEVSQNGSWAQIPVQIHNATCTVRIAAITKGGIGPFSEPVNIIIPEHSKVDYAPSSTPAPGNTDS
Procedure: as §1

rat MerTKECD-hFc = target: T3, rat MerTKECD-hFc (rat, UniProt P57097 19-497)
T3 construct: extracellular domain; Prepared in the same manner as hMerTKECD-mFc and mMerTKECD-mFc; not shown: human Fc
T3 sequence (looked up): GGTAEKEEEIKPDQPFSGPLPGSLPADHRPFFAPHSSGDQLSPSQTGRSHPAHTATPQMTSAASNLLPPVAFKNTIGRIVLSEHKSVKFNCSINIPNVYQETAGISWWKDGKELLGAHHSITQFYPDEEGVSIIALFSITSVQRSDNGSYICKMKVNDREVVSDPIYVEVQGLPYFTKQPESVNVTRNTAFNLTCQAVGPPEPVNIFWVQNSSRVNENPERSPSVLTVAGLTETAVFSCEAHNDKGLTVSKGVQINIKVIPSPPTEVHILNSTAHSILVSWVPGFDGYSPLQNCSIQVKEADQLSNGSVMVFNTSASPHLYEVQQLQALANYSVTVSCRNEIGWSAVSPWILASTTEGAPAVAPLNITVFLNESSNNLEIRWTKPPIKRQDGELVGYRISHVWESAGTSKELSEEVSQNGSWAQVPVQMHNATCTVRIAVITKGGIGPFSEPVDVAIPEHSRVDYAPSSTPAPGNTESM
Procedure: as §1

Measured: binding result

B1: m20A77_mIgG1 (antibody, V domains shown)
VH: QVQLQQPGTELVKPGASVKLSCRASGNTFTSYWMHWVKQRPGQGLEWIGNINPSSGGTNYNEKFKSKATLTVDKSSSTAYMQLSSLTSEDSAVYYCARLNYYGFDGFAFWGQGTLVTVSA
VL: DIKMTQSPSSMYASLGERVTITCKASQDINSYLSWFQQKPGKSPKTLIYRANRLVSGVPSRFSGSGSGQDYSLTISSLEYEDMGIYYCLQYDEFPFTFGSGTKLEIK
notes: CDR-modified variant of 20A77, made recombinantly with mouse IgG1 heavy chain and kappa light chain constant regions
binds: [1] | [2] | rat MerTKECD-hFc

Reference: patent US20250326862A1, “Antibody or Fragment Thereof Binding Specifically to Mertk, and Anti-Tumor Agent” (Chiome Bioscience Inc., priority 2021, published 2025)
